Experiment [1] concerns the target T1, human MR LBD (residues 727-984) containing a C808S mutation, 6xHis-GST fusion protein (;human, UniProt P08235 727-984).
T1 chain: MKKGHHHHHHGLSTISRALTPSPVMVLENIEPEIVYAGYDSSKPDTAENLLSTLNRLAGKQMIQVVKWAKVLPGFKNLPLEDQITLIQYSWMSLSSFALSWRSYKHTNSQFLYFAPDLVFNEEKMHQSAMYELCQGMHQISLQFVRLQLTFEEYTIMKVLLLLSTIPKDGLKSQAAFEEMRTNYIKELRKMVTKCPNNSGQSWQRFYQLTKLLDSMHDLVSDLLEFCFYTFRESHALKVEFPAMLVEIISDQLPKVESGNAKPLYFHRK
In words: AlphaScreen competition; corticosterone.

Experiment [2] has as its target T1, human MR LBD (residues 727-984) …. In words: AlphaScreen peptide competition; corticosterone. On the technique in general: In Alpha technology, singlet oxygen from a donor bead excites a nearby acceptor bead.

B1: PGC1α-(1+2), human PGC1α fragment (residues 1-220) containing both LXXLL motifs, 6xHis-GST fusion protein (other)
chain: MAWDMCNQDSESVWSDIECAALVGEDQPLCPDLPELDLSELDVNDLDTDSFLGGLKWCSDQSEIISNQYNNEPSNIFEKIDEENEANLLAVLTETLDSLPVDEDGLPSFDALTDGDVTTDNEASPSSMPDGTPPPQEAEEPSLLKKLLLAPANTQLSYNECSGLSTQNHANHNHRIRTNPAIVKTENSWSNKAKSICQQQKPQRRPCSELLKYLTTNDDP
For the molecule B1, in experiment [1], the IC50 amounted to 40 nM. In experiment [2], AEEPSLLKKLLLAPA [unlabeled PGC1α-1 peptide] showed an IC50 of 900 nM. Turning to RRPCSELLKYLTTND [unlabeled PGC1α-2 peptide], in experiment [2], the IC50 was found to be 1100 nM.

What is called IC50 is the point on the concentration scale where inhibition reaches its midpoint. Low readings indicate greater potency in that assay, high ones weaker potency in that assay.

For the origin of these results see patent publication US20070111265A1 (published 2007).
